Experimental data: patent US20160166613A1

How the values were obtained:
[1] = target: CD19-CAR-FRBl2 (CD19 chimeric antigen receptor with two tandem FRBl domains, coexpressed with iCaspase9 from iC9-CAR(19).FRBl2)
[2] = target: Her2-CAR-FRBl2 (Her2 chimeric antigen receptor with two tandem FRBl domains fused to the carboxy terminus); experiment: cell-based or functional assay
[3] = target: CD19-CAR-FRBl2 (CD19 chimeric antigen receptor with two tandem FRBl domains, coexpressed with iCaspase9 from iC9-CAR(19).FRBl2); experiment: cell-based or functional assay

CD19-CAR-FRBl2 (CD19 chimeric antigen receptor with two tandem FRBl domains, coexpressed with iCaspase9 from iC9-CAR(19).FRBl2), sequence (chain, as listed by the source mutant limits assumed): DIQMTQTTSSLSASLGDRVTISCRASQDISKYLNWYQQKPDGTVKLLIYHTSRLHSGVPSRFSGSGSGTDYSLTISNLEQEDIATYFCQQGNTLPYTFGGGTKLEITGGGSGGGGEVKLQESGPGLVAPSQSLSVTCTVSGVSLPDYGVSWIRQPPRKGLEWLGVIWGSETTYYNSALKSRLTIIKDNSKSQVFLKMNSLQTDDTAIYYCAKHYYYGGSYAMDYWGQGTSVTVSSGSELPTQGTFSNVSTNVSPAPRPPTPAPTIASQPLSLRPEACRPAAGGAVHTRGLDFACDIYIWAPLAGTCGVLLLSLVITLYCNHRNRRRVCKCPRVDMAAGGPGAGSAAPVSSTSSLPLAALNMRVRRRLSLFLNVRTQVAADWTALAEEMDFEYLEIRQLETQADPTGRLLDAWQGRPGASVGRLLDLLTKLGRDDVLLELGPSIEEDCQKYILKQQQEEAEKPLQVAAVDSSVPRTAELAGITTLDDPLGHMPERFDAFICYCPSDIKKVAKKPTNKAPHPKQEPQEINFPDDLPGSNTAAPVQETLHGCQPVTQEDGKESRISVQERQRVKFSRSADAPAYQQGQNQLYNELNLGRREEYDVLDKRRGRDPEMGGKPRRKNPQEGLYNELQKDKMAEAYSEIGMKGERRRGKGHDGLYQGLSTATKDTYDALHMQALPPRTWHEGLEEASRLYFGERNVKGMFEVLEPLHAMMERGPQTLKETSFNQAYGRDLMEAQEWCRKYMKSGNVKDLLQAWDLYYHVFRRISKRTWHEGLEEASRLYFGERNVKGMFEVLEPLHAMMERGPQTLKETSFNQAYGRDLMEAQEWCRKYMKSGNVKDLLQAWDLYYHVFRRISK
Her2-CAR-FRBl2 (Her2 chimeric antigen receptor with two tandem FRBl domains fused to the carboxy terminus), sequence (chain, as listed by the source mutant limits assumed): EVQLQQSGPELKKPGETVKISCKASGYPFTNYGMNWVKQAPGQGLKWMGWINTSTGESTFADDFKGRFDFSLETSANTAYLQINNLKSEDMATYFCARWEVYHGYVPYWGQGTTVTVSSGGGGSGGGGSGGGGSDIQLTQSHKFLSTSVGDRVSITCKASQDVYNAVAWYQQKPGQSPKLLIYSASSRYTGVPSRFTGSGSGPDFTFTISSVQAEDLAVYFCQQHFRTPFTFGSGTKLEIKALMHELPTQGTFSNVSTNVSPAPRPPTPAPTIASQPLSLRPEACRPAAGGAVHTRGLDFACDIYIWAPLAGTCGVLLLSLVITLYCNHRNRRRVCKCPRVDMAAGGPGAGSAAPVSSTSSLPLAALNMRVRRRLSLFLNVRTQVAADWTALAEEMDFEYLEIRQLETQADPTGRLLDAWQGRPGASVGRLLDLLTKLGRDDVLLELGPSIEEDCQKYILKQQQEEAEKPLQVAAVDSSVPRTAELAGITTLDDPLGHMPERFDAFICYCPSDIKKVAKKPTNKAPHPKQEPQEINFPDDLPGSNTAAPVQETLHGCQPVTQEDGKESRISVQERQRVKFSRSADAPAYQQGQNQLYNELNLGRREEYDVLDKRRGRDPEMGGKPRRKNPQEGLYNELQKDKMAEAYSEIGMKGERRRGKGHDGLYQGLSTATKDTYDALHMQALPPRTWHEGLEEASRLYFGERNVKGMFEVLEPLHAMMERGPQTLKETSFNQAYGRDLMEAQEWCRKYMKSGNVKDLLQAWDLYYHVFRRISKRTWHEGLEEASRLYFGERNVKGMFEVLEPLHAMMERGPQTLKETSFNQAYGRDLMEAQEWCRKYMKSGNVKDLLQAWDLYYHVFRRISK

## inducible Caspase-9 (FKBP12v36 - SGGGSG linker - dCaspase9) (enzyme)
[1]
  IC50 (read off the curve): concentration of the dimerizer rapamycin (not of a protein) at half-maximal loss of SEAP activity, 293 cells expressing iC9.CAR(19)-FRBl2: 1 nM
[2]
  SEAP activity (constitutive SRα-SEAP reporter in transfected 293 cells, overnight with half-log dilutions of rapamycin) (% decrease of SEAP activity): 50
[3]
  SEAP activity (constitutive SRα-SEAP reporter in transfected 293 cells, overnight with half-log dilutions of rapamycin) (% decrease of SEAP activity): 50
